Literature values in patent publication US20200216492A1, “USE OF C-TERMINALLY EXTENDED PEPTIDES TO DISRUPT INHIBITOR NK CELL RECEPTOR INTERACTIONS WITH MHC I” (La Jolla Institute for Allergy and Immunology, priority 2016, published 2020).

Target: HLA-B*57:01 (Homo sapiens, UniProt P01889, D201E/D98Y/E176V/E187L/E204Q/E69M/E70A/G107R/I90N/K202T/L105A/L119I/N104I/N87E/Q89R/Q94S/R106L/R155S/R180L/R86G/S101N/S121V/S35A/S48A/T118I/V36M/Y140S/Y91M)
Conditions: previously determined; read-out: binding affinity KD to HLA-B*57:01

Kd: 17 µM
B1: KIR3DL1: inhibitory killer immunoglobulin receptor on NK cells binding HLA-B*57:01 (protein, UniProt P43629 22-444, looked up)
Killer cell …: HMGGQDKPFLSAWPSAVVPRGGHVTLRCHYRHRFNNFMLYKEDRIHIPIFHGRIFQESFNMSPVTTAHAGNYTCRGSHPHSPTGWSAPSNPVVIMVTGNHRKPSLLAHPGPLVKSGERVILQCWSDIMFEHFFLHKEGISKDPSRLVGQIHDGVSKANFSIGPMMLALAGTYRCYGSVTHTPYQLSAPSDPLDIVVTGPYEKPSLSAQPGPKVQAGESVTLSCSSRSSYDMYHLSREGGAHERRLPAVRKVNRTFQADFPLGPATHGGTYRCFGSFRHSPYEWSDPSDPLLVSVTGNPSSSWPSPTEPSSKSGNPRHLHILIGTSVVIILFILLLFFLLHLWCSNKKNAAVMDQEPAGNRTANSEDSDEQDPEEVTYAQLDHCVFTQRKITRPSQRPKTPPTDTILYTELPNAKPRSKVVSCP
